The RNAGym collection of RNA variant scans (doi:10.1093/molbev/msab373)

B1: Azoarcus group I ribozyme (parent)
chain: GUGCCUUGCGCCGGGAAACCACGCAAGGGAUGGUGUCAAAUUCGGCGAAACCUAAGCGCCCGCCCGGGCGUAUGGCAACGCCGAGCCAAGCUUCGGCGCCUGCGCCGAUGAAGGUGUAGAGACUAGACGGCACCCACCUAAGGCAAACGCUAUGGUGAAGGCAUAGUCCAGGGAGUGGCGAAAGUCACACAAACCGG

Variants of: B1
Assay: reverse-splicing fitness (ratio to wild type); higher = more active; in vitro selection; Mg2+ level not given
How it was run: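 An in vitro group I ribozyme library with randomized positions was T7-transcribed and gel-purified. In triplicate, 10 pmol RNA in EPPS pH 7.5 was reacted with 50 pmoles of a 30-nt RNA substrate for 1 h at 37 °C across several added MgCl2 levels (1–48 mM), then stopped with EDTA. Products were reverse transcribed from a substrate-complementary primer, PCR-amplified and sequenced (HiSeq 4000). Fitness is a variant's read proportion after selection over that before, normalised to wild type.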

First: GUGCCUUGCGCCGGGAAACCACGCAAGGGAUGGUGUCAAAUUCGGCGAAACCUAAGCGCCCGCCCGGGCGUAUGGCAACGCUGAGCCAAGCUUCGGCGCCUGCGCCGAUGCAGGUGUAGCGACUAGACGGCACCCACCUAAGGCAAACGGUAUGGUGAAGGCAUAGUCCAGGGAGCGGCGAAAGUCACACAAACCGG [C82U A111C A120C C150G U176C]
Second: GUGCCUUGCGCCGGGAAACCACGCAAGGGAUGGUGUCAAAUUCGGCGAAACCUAAGCGCCCGCCCGGGCGUAUGGCAACGCUGAGCCAAGCUUCGGCGCCUGCGCCGAUGCAGGUGUAGCGACUAGACGGCACCCACCUAAGGCAAACGGUAUGGUGAAGGCAUAGUCCAGGGAGGGGCGAAAGUCACACAAACCGG [C82U A111C A120C C150G U176G]
The reverse-splicing fitness of the first is higher: 0.00787 for the first, 0.00336 for the second.

First: GUGCCUUGCGCCGGGAAACCACGCAAGGGAUGGUGUCAAAUUCGGCGAAACCUAAGCGCCCGCCCGGGCGUAUGGCAACGCUGAGCCAAGCUUCGGCGCCUGCGCCGAUGCAGGUGUAGCGACUAGACGGCACCCACCUAAGGCAAACGUUAUGGUGAAGGCAUAGUCAAGGGAGCGGCGAAAGUCACACAAACCGG [C82U A111C A120C C150U C169A U176C]
Second: GUGCCUUGCGCCGGGAAACCACGCAAGGGAUGGUGUCAAAUUCGGCGAAACCUAAGCGCCCGCCCGGGCGUAUGGCAACGCUGAGCCAAGCUUCGGCGCCUGCGCCGAUGCAGGUGUAGCGACUAGACGGCACCCACCUAAGGCAAACGUUAUGGUGAAGGCAUAGUCAAGGGAGGGGCGAAAGUCACACAAACCGG [C82U A111C A120C C150U C169A U176G]
The reverse-splicing fitness of the first is higher: 0.0151 for the first, 0.00672 for the second.

Compared with GUGCCUUGCGCCGGGAAACCACGCAAGGGAUGGUGUCAAAUUCGGCGAAACCUAAGCGCCCGCCCGGGCGUAUGGCAACGCUGAGCCAAGCUUCGGCGCCUGCGCCGAUGCAGGUGUAGCGACUAGACGGCACCCACCUAAGGCAAACGUUAUGGUGAAGGCAUAGUCAAGGGAGAGGCGAAAGUCACACAAACCGG [C82U A111C A120C C150U C169A U176A], GUGCCUUGCGCCGGGAAACCACGCAAGGGAUGGUGUCAAAUUCGGCGAAACCUAAGCGCCCGCCCGGGCGUAUGGCAACGCUGAGCCAAGCUUCGGCGCCUGCGCCGAUGCAGGUGUAGCGACUAGACGGCACCCACCUAAGGCAAACGUUAUGGUGAAGGCAUAGUCUAGGGAGGGGCGAAAGUCACACAAACCGG [C82U A111C A120C C150U C169U U176G] is lower in reverse-splicing fitness: 0.0151 for the first, 0.00584 for the second.

Going from GUGCCUUGCGCCGGGAAACCACGCAAGGGAUGGUGUCAAAUUCGGCGAAACCUAAGCGCCCGCCCGGGCGUAUGGCAACGCUGAGCCAAGCUUCGGCGCCUGCGCCGAUGCAGGUGUAGCGACUAGACGGCACCCACCUAAGGCAAACGUUAUGGUGAAGGCAUAGUCUAGGGAGAGGCGAAAGUCACACAAACCGG [C82U A111C A120C C150U C169U U176A] to GUGCCUUGCGCCGGGAAACCACGCAAGGGAUGGUGUCAAAUUCGGCGAAACCUAAGCGCCCGCCCGGGCGUAUGGCAACGCUGAGCCAAGCUUCGGCGCCUGCGCCGAUGCAGGUGUAGCGACUAGACGGCACCCACCUAAGGCAAACGUUAUGGUGAAGGCAUAGUCUAGGGAGCGGCGAAAGUCACACAAACCGG [C82U A111C A120C C150U C169U U176C], the reverse-splicing fitness rises from 0.0178 to 0.0196.

First: GUGCCUUGCGCCGGGAAACCACGCAAGGGAUGGUGUCAAAUUCGGCGAAACCUAAGCGCCCGCCCGGGCGUAUGGCAACGCUGAGCCAAGCUUCGGCGCCUGCGCCGAUGCAGGUGUAGCGACUAGACGGCACCCACCUAAGGCAAACGUUAUGGUGAAGGCAUAGUCGAGGGAGCGGCGAAAGUCACACAAACCGG [C82U A111C A120C C150U C169G U176C]
Second: GUGCCUUGCGCCGGGAAACCACGCAAGGGAUGGUGUCAAAUUCGGCGAAACCUAAGCGCCCGCCCGGGCGUAUGGCAACGCUGAGCCAAGCUUCGGCGCCUGCGCCGAUGCAGGUGUAGCGACUAGACGGCACCCACCUAAGGCAAACGUUAUGGUGAAGGCAUAGUCGAGGGAGAGGCGAAAGUCACACAAACCGG [C82U A111C A120C C150U C169G U176A]
The reverse-splicing fitness of the first is higher: 0.0153 for the first, 0.0121 for the second.

Compared with GUGCCUUGCGCCGGGAAACCACGCAAGGGAUGGUGUCAAAUUCGGCGAAACCUAAGCGCCCGCCCGGGCGUAUGGCAACGCUGAGCCAAGCUUCGGCGCCUGCGCCGAUGCAGGUGUAGCGACUAGACGGCACCCACCUAAGGCAAACGUUAUGGUGAAGGCAUAGUCGAGGGAGGGGCGAAAGUCACACAAACCGG [C82U A111C A120C C150U C169G U176G], GUGCCUUGCGCCGGGAAACCACGCAAGGGAUGGUGUCAAAUUCGGCGAAACCUAAGCGCCCGCCCGGGCGUAUGGCAACGCUGAGCCAAGCUUCGGCGCCUGCGCCGAUGCAGGUGUAGCGACUAGACGGCACCCACCUAAGGCAAACGUUAUGGUGAAGGCAUAGUCGAGGGAGUGGCGAAAGUCACACAAACCGG [C82U A111C A120C C150U C169G] is higher in reverse-splicing fitness: 0.00553 for the first, 0.0078 for the second.

Compared with GUGCCUUGCGCCGGGAAACCACGCAAGGGAUGGUGUCAAAUUCGGCGAAACCUAAGCGCCCGCCCGGGCGUAUGGCAACGCUGAGCCAAGCUUCGGCGCCUGCGCCGAUGCAGGUGUAGCGACUAGACGGCACCCACCUAAGGCAAACGUUAUGGUGAAGGCAUAGUCUAGGGAGUGGCGAAAGUCACACAAACCGG [C82U A111C A120C C150U C169U], GUGCCUUGCGCCGGGAAACCACGCAAGGGAUGGUGUCAAAUUCGGCGAAACCUAAGCGCCCGCCCGGGCGUAUGGCAACGCUGAGCCAAGCUUCGGCGCCUGCGCCGAUGCAGGUGUAGCGACUAGACGGCACCCACCUAAGGCAAACGUUAUGGUGAAGGCAUAGUCAAGGGAGUGGCGAAAGUCACACAAACCGG [C82U A111C A120C C150U C169A] is lower in reverse-splicing fitness: 0.0109 for the first, 0.00816 for the second.

Variant GUGCCUUGCGCCGGGAAACCACGCAAGGGAUGGUGUCAAAUUCGGCGAAACCUAAGCGCCCGCCCGGGCGUAUGGCAACGCUGAGCCAAGCUUCGGCGCCUGCGCCGAUGCAGGUGUAGCGACUAGACGGCACCCACCUAAGGCAAACGUUAUGGUGAAGGCAUAGUCCAGGGAGUGGCGAAAGUCACACAAACCGG [C82U A111C A120C C150U] has a reverse-splicing fitness of 0.0192.
